These results are taken from paper PMC4467669, “Targeted inhibition of the Shroom3–Rho kinase protein–protein interaction circumvents Nogo66 to promote axon outgrowth” (BMC Neuroscience, 2015).

Where a chain is given by its changes, count along the chain named.

In one test the target is T1, Shroom3 (Mus musculus, UniProt Q9QXN0).
T1 construct: SD2 domain (aa 1,563–1,986)
T1 sequence (Q9QXN0 1563-1986): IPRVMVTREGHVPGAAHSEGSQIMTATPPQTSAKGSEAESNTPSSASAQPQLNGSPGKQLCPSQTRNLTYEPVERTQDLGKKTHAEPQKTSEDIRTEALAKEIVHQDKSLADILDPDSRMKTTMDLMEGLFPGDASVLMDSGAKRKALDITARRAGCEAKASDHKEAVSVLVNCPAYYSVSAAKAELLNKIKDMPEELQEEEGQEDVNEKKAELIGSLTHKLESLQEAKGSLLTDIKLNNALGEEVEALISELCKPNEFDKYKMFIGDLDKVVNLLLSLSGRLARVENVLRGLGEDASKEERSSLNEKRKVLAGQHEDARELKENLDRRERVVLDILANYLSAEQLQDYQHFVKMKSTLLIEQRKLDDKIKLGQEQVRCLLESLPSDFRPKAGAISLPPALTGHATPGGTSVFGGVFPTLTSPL
T1 sequence (P70336 698-957 partner): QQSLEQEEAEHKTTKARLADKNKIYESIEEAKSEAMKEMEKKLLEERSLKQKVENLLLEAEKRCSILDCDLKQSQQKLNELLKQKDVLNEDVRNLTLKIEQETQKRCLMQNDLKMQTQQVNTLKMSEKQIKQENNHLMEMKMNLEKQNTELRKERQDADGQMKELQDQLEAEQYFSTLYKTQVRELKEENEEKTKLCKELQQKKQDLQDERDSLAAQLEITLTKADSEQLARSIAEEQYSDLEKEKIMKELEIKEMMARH
The experiment in a line: ELISA of purified SD2 / biotin-R2-C1 interaction; wash-out irreversibility, DTT block and Cys-to-Ala mutagenesis. It counts as binding. (In general: ELISA stands for enzyme-linked immunosorbent assay.)

Test [1] addresses T2, Shroom3 SD2 domain (aa 1,563–1,986), GST removed (mouse, UniProt Q9QXN0 1563-1986).
T2 construct: Shroom3 SD2 domain, mouse, aa 1,563-1,986; Expressed as GST-SD2 from pGST-SD2; also called WT SD2; SD2 wild type; source: E. coli, purified (glutathione agarose; GST removed with TEV protease)
T2 sequence (looked up): T1 sequence (Q9QXN0 1563-1986)
The test is described as follows: ELISA; 0.5 µg SD2 immobilised on 96-well Immulon 2B high binding plates; Biotin-R2C1 0 to 1,778 nM (11 points) for 1 h at 25°C in TBS-1 (20 mM Tris HCl, 150 mM KCl, 0.5% Triton X-100, pH 7.9) with 0.5% BSA; NeutrAvidin-HRP; apparent Kd, hyperbolic fit. The settings on record: both partners purified.

The target in the next test is T3, SD2 Cys254Ala (ELISA) (mouse, UniProt Q9QXN0 1563-1986, Cys254Ala (SD2 numbering; Cys 1816 in full length mouse Shroom3)).
T3 construct: Shroom3 SD2 domain, mouse, aa 1,563-1,986; also called Cys254Ala mutant
T3 sequence (looked up): T1 sequence (Q9QXN0 1563-1986) with C254A
The experiment in a line: ELISA; 150 ng SD2 (wild type or mutant) immobilised on 384-well high-binding plates; CCG-17444 dilutions 30 min at 25°C, then 10 ng biotin-R2C1 (1.5 ng in Figure 4) 1 h at 25°C; buffer A (20 mM Tris HCl, 150 mM KCl, 0.05% Triton X-100, 0.5% BSA, pH 7.9); NeutrAvidin-HRP; also with 1 mM DTT. Particulars: both partners purified.

The next test concerns the target T4, SD2 Cys379Ala (ELISA) (mouse, UniProt Q9QXN0 1563-1986, Cys379Ala (SD2 numbering; mouse Shroom3 Cys1941)).
T4 construct: Shroom3 SD2 domain, mouse, aa 1,563-1,986; SD2 Cys379 corresponds to mouse Shroom3 Cys1941 (AAF13269)
T4 sequence (looked up): T1 sequence (Q9QXN0 1563-1986) with C379A
The test is described as above. Particulars: both partners purified.

Test [2] addresses T5, SD2 Cys254Ala Cys379Ala (ELISA) (mouse, UniProt Q9QXN0 1563-1986, Cys254Ala (SD2 numbering; Cys 1816 in full length mouse Shroom3) | Cys379Ala …).
T5 construct: Shroom3 SD2 domain, mouse, aa 1,563-1,986; also called double mutant SD2 Cys254Ala Cys379Ala; double Cys to Ala mutant
T5 sequence (looked up): T1 sequence (Q9QXN0 1563-1986) with C254A, C379A
The test is described as above. Particulars: both partners purified.

For test [3], the target named is T2, Shroom3 SD2 domain (aa 1,563–1,986), …. The experiment in a line: ELISA; competition: SD2 immobilised; 100 ng Biotin-R2C1 incubated 1 h at 25°C with unlabeled R2C1 (1–10 µg); NeutrAvidin-HRP. The settings on record: both partners purified.
Test [4] addresses T6, GST-SD2 wild type (mouse Shroom3 aa 1,563–1,986) (mouse, UniProt Q9QXN0 1563-1986).
T6 construct: Shroom3 SD2 domain, mouse, aa 1,563-1,986; also called wild type GST-SD2; WT SD2
T6 sequence (looked up): T1 sequence (Q9QXN0 1563-1986)
The experiment in a line: pull-down; wild type or mutant GST-SD2 (5 μg) bound to glutathione agarose resin, incubated overnight with His-Sumo-R2-C1 (12.5 μg); washed 3× Triton IP buffer, 1× PBS; SDS-PAGE, Coomassie G-250. Particulars: both partners purified.

Test [5] concerns the target T7, GST-SD2 Cys254Ala (mouse Shroom3 aa 1,563–1,986, Cys1816Ala) (mouse, UniProt Q9QXN0 1563-1986, Cys254Ala (SD2 numbering; Cys 1816 in full length mouse Shroom3)).
T7 construct: Shroom3 SD2 domain, mouse, aa 1,563-1,986; Probably made in E. coli like the wild type; also called mutant GST-SD2; Cys254Ala SD2
T7 sequence (looked up): T1 sequence (Q9QXN0 1563-1986) with C254A
Described as above. Particulars: both partners purified.

The molecule `CC1(C)CC(=O)C2=C(C1)Nc1[nH]c(=S)[nH]c(=O)c1C2c1cccs1` (centres unmarked) [CCG-17444] gave an IC50 against Shroom3 of 12.4 ± 2.3 µM.

B1: Biotinylated HisSUMO-R2C1 (mouse ROCK II aa 698–957) (domain or fragment, UniProt P70336 698-957, looked up)
chain: T1 sequence (P70336 698-957 partner)
modifications: biotin (NHS-PEO4-biotin; on average four biotin molecules per 1 mol of protein)
notes: No removal of the His-SUMO tag is described; also called Biotin-R2C1; biotinylated R2-C1; source: E. coli, purified (HisPur Ni-NTA), biotinylated with NHS-PEO4-biotin
Regarding B1, in test [1], the Kd amounted to 0.0049 µM. The binding result (with SD2 Cys254Ala (ELISA); with SD2 Cys379Ala (ELISA); in test [2]) was “binds” each time.

B2: HisSUMO-R2C1 (mouse ROCK II aa 698–957), unlabeled (domain or fragment, UniProt P70336 698-957, looked up)
chain: T1 sequence (P70336 698-957 partner)
notes: also called Unlabeled R2-C1; unlabeled R2C1; source: E. coli, purified (HisPur Ni-NTA)
For the molecule B2, the binding result in test [3], in test [4] and in test [5] was “binds” each time.

The term IC50 denotes the concentration that gives 50% inhibition. Low values mean inhibition by little substance, high ones a need for much substance.
